Structures can show the parent of a compound that is named as a salt.
Assays:
[1] = Dry film/coating on titanium foil: inspection and redissolution/rehydration in water; assay type: physicochemical
Procedure: In order to test the ability of aqueous albumin solutions to form solid coatings on titanium microprojections, a coated microprojection array was prepared in the following manner. […] To aliquots of these solutions, fluorescein, a marker added for subsequent visualization of the dried coating, was added at a final concentration of 1 millimolar. A 1-microliter drop of this solution was spread on titanium foil having an area of about one centimeter square. The solution was allowed to dry at room temperature for about 1 hour.
A coated microprojection array was prepared in the following manner. […] To this suspension, fluorescein, a marker added for subsequent visualization, was added at a final concentration of 1 millimolar. A 1 microliter drop of this suspension was spread on titanium foil having an area of 1 square centimeter and allowed to dry at room temperature for about an hour.
To 50 microliters of this solution, 50 microliters of a 40 percent by weight aqueous solution of lidocaine HCl was added. A control solution containing no albumin was also prepared. 1-microliter drops of these solutions were spread on titanium foil having an area of approximately 1 square centimeter. The solutions were allowed to air dry at room temperature for about 1 hour.

[2] = hGH delivery studies with tip-coated microprojection arrays; plasma hGH by ELISA, compared with subcutaneous injection; assay type: in vivo, hairless guinea pigs; conditions: for Cmax / tmax: plasma hGH
Procedure: An aqueous solution containing 20 wt % human growth hormone (20 wt % hGH), and 20 wt % sucrose was prepared. […] The tips of the microprojections were coated with this solution by passing the arrays over a rotating drum carrying the hGH/sucrose solution using the method and apparatus disclosed in U.S. Patent Application Ser. No. 60/276,762 filed Mar. 16, 2001. Four successive coatings were performed on each microprojection array at 4° C. The amount of protein coated on the arrays was evaluated by total protein assay. An average of 9.5±0.9 μg of hGH was coated per array. […] On the microprojection itself, the coating was found unevenly distributed. Most of the solid coating appeared to be located in caps centered on the geometric center of the faces of the coated area of the microprojections. […] The maximum measured thickness of the coating was about 4 μm while the average calculated thickness over the entire coated area was only about 1.7 μm. Overall, the coating presented good aerodynamics and good adhesion, consistent with minimum effect on penetration of the microprojections into the skin and minimal removal of the drug from the microprojection during penetration.
Some of the hGH tip-coated arrays were subsequently used for drug delivery studies in hairless guinea pigs. The application of the coated microprojection arrays was done using an impact applicator (total energy=0.4 Joules, delivered in less than 10 milliseconds) using a spring-driven impact applicator or the type disclosed in U.S. Patent Application Ser. No. 60/240,307 filed Oct. 13, 2000. The arrays were left on the skin after application for 5 seconds, 5 minutes, or 1 hour, in groups of three animals. Blood was collected at time intervals for plasma hGH determination by ELISA. […] On average, 5 μg of hGH was delivered in each animal, which accounts for approximately 50% of the coated dose. […] Finally, the 5 minute wearing time group had the smallest CV (30%), which is even smaller than that observed following subcutaneous injection (50%).

Question: For `CCN(CC)CC(=O)Nc1c(C)cccc1C` [lidocaine HCl], which “nature of dried film (hygroscopicity, suitability for storage)” value ([1]; control solution without albumin) is on record?
Answer: very hygroscopic film unsuitable for subsequent storage

Question: With Cyclosporin A [CSA] as the compound, how does the “release of drug particles from dry albumin coating following rehydration” value ([1]; CSA suspension in 20 wt% human albumin, dried on titanium foil, particles 1 to 25 micrometers) read?
Answer: freed readily following rehydration

Question: With human growth hormone [hGH] as the compound, how does the “hGH delivery versus wearing time” value ([2]; arrays left on skin 5 seconds, 5 minutes or 1 hour) read?
Answer: the same at all wearing times

Question: And the “amount of hGH delivered in each animal (average)” value ([2]; hGH/sucrose tip-coated microprojection array, impact applicator, hairless guinea pigs, all wearing times)?
Answer: 5 µg

Question: What about the Cmax ([2]; microprojection administration) of the same compound?
Answer: 13 ng/mL

Question: And the tmax ([2]; microprojection administration)?
Answer: 30 min

Question: What about the “hGH delivered as fraction of the coated dose” value ([2]; microprojection array, hairless guinea pigs) of the same compound?
Answer: approximately 50%

Question: What about the “fraction of the coated dose delivered into the skin” value ([2]; microprojection array, assuming bioavailability similar to subcutaneous (65%)) of the same compound?
Answer: about 80%

Question: What about the bioavailability ([2]; subcutaneous administration) of the same compound?
Answer: 65%

Question: What about the Cmax ([2]; subcutaneous injection) of the same compound?
Answer: 5 ng/mL

Question: And the tmax ([2]; subcutaneous injection)?
Answer: 60 min
